# Test results: the supplement of paper PMC10126150
# ± gives the standard deviation of the averaged measurements.
# Tested on: ATP
# Experiment: switch fluorescence ratio, 500 uM ATP over buffer (Cy3 cluster intensity, sum of 5 cycles each) (fold (ratio)); higher = stronger signal-on switching upon ATP binding; sequences stand for … in TCGTCGGCAGCGTCAGATGTGTATAAGAGACAGTTTTTTTTTTTTTTTTTTTTTTTTT…TC
# Conditions: aptamer strand: ATP DNA aptamer (quencher-CACCTGGGGGAGTATTGCGGAGGAAGG + anchor), 100 nM annealed; ATP concentration: 500 uM
# Outline: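 Cy3-labelled switching-strand clusters on a modified Illumina MiSeq flow-cell were annealed to 100 nM quencher-labelled ATP aptamer, imaged in selection buffer, then imaged after 15 min with 500 uM ATP at 22 °C. Five buffer/ATP cycles ran, with NaOH stripping and re-annealing between them. The fluorescence ratio is summed target-cycle over summed buffer-cycle Cy3 intensity per cluster, averaged per switch-domain sequence. Clusters outside 100-1000 RFU were excluded.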
# 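Further: ATP exposure 15 min at 22 °C before imaging.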
row,Sequence,switch fluorescence ratio
1,ATGAGTTGTA,1.01 ± 0.012
2,TATCTCAACG,1.045 ± 0.006
3,TCGGTTGGTA,1 ± 0.042
4,TTATGCCGGT,1.02 ± 0.068
5,AGAGTCAGTG,0.982 ± 0.022
6,GGGGGTGAGG,1.01 ± 0.043
7,ACGCTACATT,1.39 ± 0.031
8,TGGGAGAGCG,0.973 ± 0.016
9,GTATATGGTC,1.02 ± 0.03
10,TTCCGTTGTG,0.98 ± 0.049
11,CTTTGATTGA,0.9806 ± 0.0047
12,GAGAGGCAAA,1.01 ± 0.018
13,GGATATAATG,0.985 ± 0.019
14,GAAACAGTGT,0.9732 ± 0.0046
15,GCCTCTTAAG,1 ± 0.032
16,TAATTAATAC,1.08 ± 0.017
17,AAAACTTTGC,1.02 ± 0.039
18,CTTTATGTCT,1 ± 0.033
19,GGGAAGGTGT,1.1 ± 0.11
20,ACGGGTTGAG,1.03 ± 0.029
21,TGACGGTGTC,1.02 ± 0.0035
22,CCTATCCCTG,1.08 ± 0.058
23,ATCCCAGGTA,2.009 ± 0.0073

row,Sequence,switch fluorescence ratio
1,GACGTAGAGC,1.08 ± 0.026
2,TATCAAATTA,1.03 ± 0.011
3,AAAGTGTTGC,1.05 ± 0.042
4,GGGCTAGACG,0.997 ± 0.085
5,ATATGAGTTT,1.01 ± 0.017
6,GTCGGACGGA,0.971 ± 0.042
7,TCCTAGGGGT,2.44 ± 1.2
8,GTGAGAATTT,1.05 ± 0.075
9,AGGAGTCTAT,0.9774 ± 0.0094
10,TATTATAAAT,0.98 ± 0.016
11,GGGGGAACAC,1.05 ± 0.044
12,TGAGGTCACG,0.982 ± 0.036
13,TTTTTTTTC,1.045 ± 0.0071
14,AGGTAGGTGT,1.04 ± 0.023
15,AATTCCTCTT,1.05 ± 0.048
16,TCAAAGTCAT,0.991 ± 0.0068
17,ATGGGGTAAC,0.969 ± 0.011
18,GTGAGAATGT,1.02 ± 0.02
19,GATGTTCGTG,0.994 ± 0.014
20,TACTGCATAG,1.044 ± 0.0091
21,TGCTATCATT,1.08 ± 0.12
22,AAGGAAAAAC,1.03 ± 0.029
23,GGAAAAAAGT,1.02 ± 0.047

row,Sequence,switch fluorescence ratio
1,ATTAATTGTG,1.01 ± 0.018
2,GTTCATCCAG,1.05 ± 0.017
3,TCGTGCAAGT,1.05 ± 0.063
4,TTTTCTGAGG,1.01 ± 0.044
5,AGCTGGATGC,1.04 ± 0.036
6,CGGGAAAAAG,1.08 ± 0.11
7,TTGGTTCAAG,1.013 ± 0.0027
8,CGGAACTGGT,1.04 ± 0.058
9,GGGTTGATCT,0.993 ± 0.011
10,CGCGAGAGTT,1.02 ± 0.0018
11,TGCATATGGG,0.978 ± 0.0058
12,GGGTTAGCGG,1.01 ± 0.027
13,TTATGGAATT,1.01 ± 0.044
14,GATAAAAGGC,0.997 ± 0.024
15,GAGGCGCAGT,0.9988 ± 0.0024
16,AGGGGGATCT,1.03 ± 0.04
17,GAATTTGGGT,0.98 ± 0.034
18,AGTGGGTTAG,1.016 ± 0.0012
19,ATAGGAGAGT,1.003 ± 0.0091
20,ACCACAGTTC,1.06 ± 0.015
21,GGTATTTTTG,0.992 ± 0.019
22,GAGGGGCAGT,0.975 ± 0.02
23,CCAGTAATTT,1.038 ± 0.0029

row,Sequence,switch fluorescence ratio
1,TTATGTATAT,1.007 ± 0.0069
2,TTGGGTGGGA,0.986 ± 0.044
3,CTGATATGCG,0.997 ± 0.023
4,AAGTGAAACA,1.03 ± 0.037
5,CGTACGGTCT,1.05 ± 0.059
6,CATTGGGACA,1.02 ± 0.019
7,CGCGGTAGCG,0.972 ± 0.041
8,TACTGCGGCA,1.04 ± 0.031
9,GGGGAGGGTG,1.05 ± 0.074
10,GCGGGGGTCC,1.17 ± 0.31
11,CAGTGGCGTA,1.01 ± 0.011
12,GGGAGAGCGG,0.9662 ± 0.0095
13,TTCAGGGGGC,1.02 ± 0.014
14,GAAATTTAAA,0.99756 ± 0.00083
15,ATGCCTGGGC,1.03 ± 0.057
16,GTTTGAAATT,1.03 ± 0.09
17,GCCCGGGGTA,1.09 ± 0.12
18,GCAACGGCGG,1.01 ± 0.054
19,TAAATTTTAG,1.007 ± 0.0026
20,TTTCGTGTGT,0.97 ± 0.0097
21,TCCATCGCTT,1.6 ± 0.79
22,ATTTGTATCC,0.994 ± 0.021
23,CAGGGAATAG,1.07 ± 0.049

row,Sequence,switch fluorescence ratio
1,GCATAGCGCC,1.04 ± 0.013
2,GGACTTAGAT,1.02 ± 0.039
3,ATATTTATTG,0.998 ± 0.04
4,TCGTTTGGGC,1.02 ± 0.019
5,TATACGACTC,1.09 ± 0.068
6,GACGAAAAGG,1.75 ± 1.1
7,GCGCTTAGGT,0.983 ± 0.077
8,TGGGTTATGT,0.992 ± 0.019
9,GGGGTTTTCA,1.022 ± 0.0042
10,AAAAGAATGT,0.993 ± 0.021
11,GGTGAACTTT,0.964 ± 0.015
12,GGGGTCTGAG,0.989 ± 0.019
13,TGAGGGTTGG,1.01 ± 0.027
14,TTAGCGGGA,1 ± 0.023
15,TTAGGGCATT,1.11 ± 0.2
16,CGAGGGTGTA,0.999 ± 0.0014
17,CTGTTTTACT,1.03 ± 0.042
18,TTTGCCTTTT,1 ± 0.042
19,AGGAACATTA,1.01 ± 0.054
20,CGATAATTTA,1 ± 0.053
21,GTGTCTTTGA,0.986 ± 0.055
22,ATAAAGCAGT,1.02 ± 0.048
23,GTTAAAAAAA,0.958 ± 0.021

row,Sequence,switch fluorescence ratio
1,TAGATGTTCG,0.978 ± 0.044
2,GGGATTCTTG,1.01 ± 0.04
3,ATGTGCTTAG,1.04 ± 0.084
4,CTTGTAAATT,0.983 ± 0.035
5,GCGTATTATT,1.001 ± 0.0043
6,GTGGTCTGCC,0.958 ± 0.0044
7,GGGGGGGGT,1 ± 0.02
8,CGTTGCGGGG,0.9751 ± 0.0073
9,TTAGGGACGT,1.01 ± 0.026
10,TTTGATCTAT,0.989 ± 0.028
11,CGTTAGATT,0.967 ± 0.011
12,TACGCATTTG,1.08 ± 0.011
13,ACATAATTAG,1.016 ± 0.0095
14,TTAGAAAGGA,1.01 ± 0.025
15,TTACCAAAAC,1.41 ± 0.54
16,GGGTACGTTG,1.01 ± 0.016
17,CGCAAGTATG,1.26 ± 0.036
18,CGTCAATTAT,1.14 ± 0.054
19,GTATTAGGGG,1.01 ± 0.028
20,TTTGGTGTCT,0.96 ± 0.025
21,GAGGTTTGGC,0.988 ± 0.051
22,CGTATTTAAA,1.01 ± 0.013
23,TAGGTCTGCG,0.978 ± 0.014

row,Sequence,switch fluorescence ratio
1,TTTGTATTGG,0.998 ± 0.035
2,GTTTGAAGCG,1 ± 0.054
3,TCTGTGGCCC,1.01 ± 0.028
4,ACTGGGGGGC,1.05 ± 0.016
5,AATGTTCAGG,0.995 ± 0.021
6,TCGCAAAGGT,1.34 ± 0.036
7,TCGATTGTGG,1.02 ± 0.03
8,TATAATGCTC,1.01 ± 0.014
9,TCAATTCTAC,1.02 ± 0.041
10,GATAGCTTTT,1.05 ± 0.082
11,TATCAGTAGG,0.981 ± 0.021
12,CTGGAGGATA,1.12 ± 0.014
13,GCGTTTAATT,1.02 ± 0.03
14,CTAGGGGCTG,0.946 ± 0.025
15,TAAATAATTG,1.008 ± 0.0069
16,TGGGGGGTGT,1.02 ± 0.069
17,GGTGATTTAT,1.01 ± 0.029
18,TTAATTCTGG,0.9976 ± 0.0034
19,TACCAGGGAT,1.1 ± 0.14
